Test results as given in PMC7956451 (International Journal of Molecular Sciences, 2021).

Target: T1, CMVpp65_(495-503)/HLA-A*02:01 single-chain trimer (SCT) protein (Homo sapiens HLA-A*02:01 (BC019236) and …, UniProt P06725;P61769;Q8WUX3, stabilised)
T1 construct: source: HEK293F, transfected, purified from culture supernatant (Ni-NTA)
Assay: BLI; Abs (mouse IgG2a/κ) immobilised, soluble pMHC SCT as analyte; pH 7.4; Octet QKe; global fit, 1:1 Langmuir model
Conditions: both partners purified

B1: H9 TCR-like antibody in mouse IgG2a/κ format (antibody, V domains shown)
VH: EVQLVQSGAEVKKPGSSVKVSCKASGGTFSSYAISWVRQAPGQGLEWMGGIIPIFGTANYAQKFQGRVTITADESTSTAYMELSSLRSEDTAVYYCARGDLYYYDSSGYPRYYFDYWGQGTLVTVSS
VL: ETTLTQSPGTLSLSPGERATLSCRASQSVSSSYLAWYQQKPGQAPRLVIYGASSRATGIPDRFSGSGSGTDFTLTISRLEPEDFAVYYCQHYSTSPGFTFGQGTKLEIR
notes: also called parental H9; H9 Ab
Kd: 348 ± 33 nM | koff: 0.0022 s⁻¹ | kon: 6300 M⁻¹ s⁻¹
